Measured values as given in the Immune Epitope Database (IEDB).
pKd: −log10 of the molar value.

Tests used:
[1] = molecular target: HLA-A*01:01; test: IEDB peptide-MHC binding, purified MHC/direct/fluorescence; filed as Kd, often an IC50 or EC50 that approximates it; ≥ and ≤ were set here for values at or beyond the usual limits of such assays
[2] = molecular target: HLA-A*02:01; test: as above
[3] = molecular target: HLA-A*03:01; test: as above
[4] = molecular target: HLA-A*11:01; test: as above; conditions: source organism: Escherichia coli O157:H7
[5] = molecular target: HLA-A*24:03; test: as above; conditions: source organism: Escherichia coli O157:H7
[6] = molecular target: HLA-A*26:01; test: as above; conditions: source organism: Escherichia coli O157:H7
[7] = molecular target: HLA-A*30:01; test: as above; conditions: source organism: Escherichia coli O157:H7
[8] = molecular target: HLA-A*31:01; test: as above; conditions: source organism: Escherichia coli O157:H7
[9] = molecular target: HLA-A*69:01; test: as above; conditions: source organism: Escherichia coli O157:H7
[10] = molecular target: HLA-B*07:02; test: as above
[11] = molecular target: HLA-B*08:01; test: as above; conditions: source organism: Escherichia coli O157:H7
[12] = molecular target: HLA-B*15:01; test: as above
[13] = molecular target: HLA-B*27:05; test: as above
[14] = molecular target: HLA-B*40:01; test: as above
[15] = molecular target: HLA-B*44:02; test: as above
[16] = molecular target: HLA-B*58:01; test: as above
[17] = molecular target: HLA-A*02:03; test: as above; conditions: source organism: West Nile virus strain PTRoxo
[18] = molecular target: HLA-A*02:11; test: as above; conditions: source organism: West Nile virus strain PTRoxo
[19] = molecular target: HLA-A*02:12; test: as above; conditions: source organism: West Nile virus strain PTRoxo
[20] = molecular target: HLA-A*02:19; test: as above; conditions: source organism: West Nile virus strain PTRoxo
[21] = molecular target: HLA-A*25:01; test: as above; conditions: source organism: West Nile virus strain PTRoxo
[22] = molecular target: HLA-A*29:02; test: as above; conditions: source organism: West Nile virus strain PTRoxo
[23] = molecular target: HLA-A*80:01; test: as above; conditions: source organism: West Nile virus
[24] = molecular target: HLA-B*51:01; test: as above; conditions: source organism: West Nile virus strain PTRoxo
[25] = molecular target: HLA-A*01:01; test: IEDB peptide-MHC binding, purified MHC/competitive/fluorescence; filed as Kd, often an IC50 or EC50 that approximates it; ≥ and ≤ were set here for values at or beyond the usual limits of such assays; conditions: source organism: West Nile virus
[26] = molecular target: HLA-A*24:02; test: IEDB peptide-MHC binding, purified MHC/direct/fluorescence; filed as Kd, often an IC50 or EC50 that approximates it; ≥ and ≤ were set here for values at or beyond the usual limits of such assays; conditions: source organism: Coxiella burnetii
[27] = molecular target: HLA-B*15:09; test: as above; conditions: source organism: Coxiella burnetii Q321
[28] = molecular target: HLA-C*03:03; test: as above; conditions: source organism: Coxiella burnetii Dugway 5J108-111
[29] = molecular target: HLA-C*08:02; test: as above; conditions: source organism: Coxiella burnetii Dugway 5J108-111
[30] = molecular target: HLA-A*32:07; test: IEDB peptide-MHC binding, purified MHC/competitive/fluorescence; filed as Kd, often an IC50 or EC50 that approximates it; ≥ and ≤ were set here for values at or beyond the usual limits of such assays; conditions: source organism: Coxiella burnetii Dugway 5J108-111
[31] = molecular target: HLA-A*32:15; test: as above; conditions: source organism: Coxiella burnetii Dugway 5J108-111
[32] = molecular target: HLA-A*68:23; test: as above; conditions: source organism: Coxiella burnetii Dugway 5J108-111
[33] = molecular target: HLA-B*15:42; test: as above; conditions: source organism: Coxiella burnetii Dugway 5J108-111
[34] = molecular target: HLA-B*45:06; test: as above; conditions: source organism: Coxiella burnetii Dugway 5J108-111
[35] = molecular target: HLA-B*83:01; test: as above; conditions: source organism: Coxiella burnetii Dugway 5J108-111
[36] = molecular target: HLA-C*06:02; test: as above; conditions: source organism: Coxiella burnetii Dugway 5J108-111
[37] = molecular target: HLA-C*14:02; test: as above; conditions: source organism: Coxiella burnetii Dugway 5J108-111
[38] = source organism: Escherichia coli O157:H7
[39] = source organism: West Nile virus strain PTRoxo
[40] = source organism: Coxiella burnetii

VTRQIHNPR
pKd [1, 38]: ≤ 4.70
pKd [2, 38]: ≤ 4.70
pKd [3, 38]: 4.94
pKd [4]: 5.73
pKd [5]: ≤ 4.70
pKd [6]: ≤ 4.70
pKd [7]: 8.16
pKd [8]: 7.01
pKd [9]: ≤ 4.70
pKd [10, 38]: ≤ 4.70
pKd [11]: ≤ 4.70
pKd [12, 38]: ≤ 4.70
pKd [13, 38]: ≤ 4.70
pKd [14, 38]: ≤ 4.70
pKd [15, 38]: ≤ 4.70
pKd [16, 38]: ≤ 4.70

MTRGLLGSY
pKd [2, 39]: ≤ 4.70
pKd [17]: ≤ 4.70
pKd [18]: ≤ 4.70
pKd [19]: ≤ 4.70
pKd [20]: ≤ 4.70
pKd [21]: 8.05
pKd [22]: 7.00
pKd [23]: 6.76
pKd [10, 39]: ≤ 4.70
pKd [14, 39]: ≤ 4.70
pKd [24]: ≤ 4.70
pKd [16, 39]: ≤ 4.70
pKd [25]: 6.28

MTFPVSLEY
pKd [1, 40]: 7.85
pKd [2, 40]: ≤ 4.70
pKd [3, 40]: 7.32
pKd [26]: ≤ 4.70
pKd [10, 40]: ≤ 4.70
pKd [12, 40]: 7.36
pKd [27]: ≤ 4.70
pKd [13, 40]: ≤ 4.70
pKd [14, 40]: ≤ 4.70
pKd [15, 40]: ≤ 4.70
pKd [16, 40]: 7.60
pKd [28]: 6.62
pKd [29]: ≤ 4.70
pKd [30]: 7.44
pKd [31]: 7.74
pKd [32]: ≥ 10.00
pKd [33]: ≤ 5.30
pKd [34]: ≤ 5.30
pKd [35]: 5.46
pKd [36]: 7.40
pKd [37]: 6.91
